Tests used:
[1] = target: HIV-1 93IN905 Env (pseudovirus) (HIV-1); assay: cell-based or functional assay
[2] = target: HIV-1 Env of isolate IAVI-C3 (Clade C) (HIV-1); assay: cell-based or functional assay
[3] = target: HIV-1 envelope glycoprotein (Env) of isolate MGRM-C-027 (HIV-1); assay: cell-based or functional assay
[4] = target: HIV-1 envelope glycoprotein (Env) of isolate APV17 (HIV-1); assay: cell-based or functional assay
[5] = target: HIV-1 MGRM-A-010 envelope glycoprotein (Env) (HIV-1); assay: cell-based or functional assay
[6] = target: HIV-1 JRCSF envelope glycoprotein (Env) (HIV-1) (UniProt P20871); assay: cell-based or functional assay
[7] = target: HIV-1 APV13 envelope glycoprotein (Env) (HIV-1); assay: cell-based or functional assay
[8] = target: HIV-1 MGRM-A-010 envelope glycoprotein (Env) on virus (HIV-1, clade A, isolate MGRM-A-010); assay: cell-based or functional assay
[9] = target: HIV-1 92BR020 envelope protein (Env) on pseudotyped virus (HIV-1 strain 92BR020); assay: cell-based or functional assay
[10] = target: HIV-1 Env of pseudovirus ZM249 (HIV-1); assay: cell-based or functional assay
[11] = target: HIV-1 JR-CSF envelope glycoprotein (Env), wild type, on pseudovirus (HIV-1 isolate JR-CSF (clade B)) (UniProt P20871); assay: cell-based or functional assay
[12] = target: HIV-1 Env of isolate APV-17 (Clade B) (HIV-1); assay: cell-based or functional assay
[13] = target: HIV-1 Env of isolate MGRM-C-025 (clade C pseudovirus) (HIV-1); assay: cell-based or functional assay
[14] = target: HIV-1 envelope glycoprotein (Env) of isolate MG RM-A-009 (HIV-1); assay: cell-based or functional assay
[15] = target: HIV-1 envelope glycoprotein (Env) of isolate 92UG031 (HIV-1); assay: cell-based or functional assay
[16] = target: HIV-1 Env of isolate MGRM-A-013 (pseudovirus) (HIV-1); assay: cell-based or functional assay
[17] = target: HIV-1 Env of isolate 92UG024 (clade D) (HIV-1); assay: cell-based or functional assay
[18] = target: HIV-1 Env of isolate MGRM-F1-016 (subtype F) (HIV-1); assay: cell-based or functional assay
[19] = target: HIV-1 Env of isolate MGRM-Chronic-B-017 (subtype B), on pseudovirus (HIV-1); assay: cell-based or functional assay
[20] = target: HIV-1 Env of isolate MG RM-D-004 (subtype D) (HIV-1); assay: cell-based or functional assay
[21] = target: HIV-1 Env of isolate MGRM-A-012 (pseudovirus) (HIV-1); assay: cell-based or functional assay
[22] = target: HIV-1 Env of isolate MGRM-Chronic-B-010 (subtype B), on pseudovirus (HIV-1); assay: cell-based or functional assay
[23] = target: HIV-1 envelope glycoprotein (Env) of isolate 92WR024 (HIV-1); assay: cell-based or functional assay
[24] = target: HIV-1 Env of isolate MGRM-Chronic-B-002 (subtype B), on pseudovirus (HIV-1); assay: cell-based or functional assay
[25] = target: HIV-1 envelope glycoprotein (Env) of isolate MG RM-A-007 (HIV-1); assay: cell-based or functional assay
[26] = target: HIV-1 envelope glycoprotein (Env) of isolate 93WR029 (HIV-1); assay: cell-based or functional assay
[27] = target: HIV-1 Env of isolate MGRM-Chronic-B-023 (subtype B), on pseudovirus (HIV-1); assay: cell-based or functional assay
[28] = target: HIV-1 Env of isolate CAAN.A2 (subtype B), on pseudovirus (HIV-1); assay: cell-based or functional assay
[29] = target: HIV-1 Env of isolate MGRM-A-010 (pseudovirus) (HIV-1); assay: cell-based or functional assay
[30] = target: HIV-1 Env of isolate MGRM-F1-013 (subtype F) (HIV-1); assay: cell-based or functional assay
[31] = target: HIV-1 Env of isolate APV_6 (subtype B), on pseudovirus (HIV-1); assay: cell-based or functional assay
[32] = target: HIV-1 Env of isolate 92TH021 (clade AE) (HIV-1); assay: cell-based or functional assay
[33] = target: HIV-1 envelope glycoprotein (Env) of isolate 92WR026 (HIV-1); assay: cell-based or functional assay
[34] = target: HIV-1 Env of isolate MG RM-D-005 (subtype D) (HIV-1); assay: cell-based or functional assay
[35] = target: HIV-1 Env of isolate MGRM-C-028 (clade C pseudovirus) (HIV-1); assay: cell-based or functional assay
[36] = target: HIV-1 Env of isolate MGRM-Chronic-B-011 (subtype B), on pseudovirus (HIV-1); assay: cell-based or functional assay
[37] = target: HIV-1 envelope glycoprotein (Env) of isolate MG RM-A-006 (HIV-1); assay: cell-based or functional assay
[38] = target: HIV-1 92BR020 Env (HIV-1 isolate 92BR020 (clade B)); assay: cell-based or functional assay
[39] = target: Endo H treated JR-FL gP120 (HIV-1 JR-FL); assay: ELISA, antigen-coated wells, mAb titrated; EC50 by nonlinear regression

Sequence of 5329_C19 (PGT-136) (antibody) (VH): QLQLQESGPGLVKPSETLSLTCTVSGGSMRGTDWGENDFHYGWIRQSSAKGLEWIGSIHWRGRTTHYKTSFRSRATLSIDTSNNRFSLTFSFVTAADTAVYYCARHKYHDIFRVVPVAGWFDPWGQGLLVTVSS
Sequence of 5329_C19 (PGT-136) (antibody) (VL): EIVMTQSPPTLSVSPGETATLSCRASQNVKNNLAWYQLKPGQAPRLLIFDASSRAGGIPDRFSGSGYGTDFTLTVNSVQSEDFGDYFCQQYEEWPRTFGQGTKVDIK
Sequence of 1443_C16 (PG16) (TCN-116) (antibody) (VH): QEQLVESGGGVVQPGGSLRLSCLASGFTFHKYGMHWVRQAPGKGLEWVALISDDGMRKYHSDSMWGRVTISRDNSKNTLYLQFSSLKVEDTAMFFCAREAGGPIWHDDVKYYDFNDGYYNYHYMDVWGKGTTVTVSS
Sequence of 1443_C16 (PG16) (TCN-116) (antibody) (VL): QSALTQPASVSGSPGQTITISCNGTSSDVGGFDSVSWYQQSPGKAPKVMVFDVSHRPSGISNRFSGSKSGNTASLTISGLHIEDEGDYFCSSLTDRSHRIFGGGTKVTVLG

5123_A06 (PGT-125) (antibody)
Neutralization by PGT-125, IC50 [1]: 0.0137 µg/mL | Neutralization by PGT-125, IC80 [1]: 0.0494 µg/mL | Neutralization by PGT-125, IC90 [1]: 0.106 µg/mL | Neutralization by PGT-125, IC95 [1]: 0.216 µg/mL

2G12 (antibody)
IC90 (neutralization of pseudovirus) [2]: > 50 µg/mL

5141_B17 (PGT-126) (antibody)
Neutralization IC80 [3]: > 10 µg/mL | Neutralization IC90 [3]: > 10 µg/mL | Neutralization IC95 [3]: > 10 µg/mL | neutralization IC50 [3]: 1.14 µg/mL | Neutralization IC80 [4]: 4.43 µg/mL | Neutralization IC90 [4]: > 10 µg/mL | Neutralization IC95 [4]: > 10 µg/mL | neutralization IC50 [4]: 0.501 µg/mL

5329_C19 (PGT-136) (antibody)
Neutralization IC80 [5]: > 10 µg/mL | Neutralization IC90 [5]: > 10 µg/mL | Neutralization IC95 [5]: > 10 µg/mL | neutralization IC50 [5]: > 10 µg/mL | Neutralization IC80 [6]: > 10 µg/mL | Neutralization IC90 [6]: > 10 µg/mL | Neutralization IC95 [6]: > 10 µg/mL | neutralization IC50 [6]: > 10 µg/mL | Neutralization IC80 [7]: > 10 µg/mL | Neutralization IC90 [7]: > 10 µg/mL | Neutralization IC95 [7]: > 10 µg/mL | neutralization IC50 [7]: > 10 µg/mL

4877_D15 (PGT-122) (antibody)
Neutralization IC80 [8]: > 10 µg/mL | Neutralization IC90 [8]: > 10 µg/mL | Neutralization IC95 [8]: > 10 µg/mL | neutralization IC50 [8]: 1.68 µg/mL

1495_C14 (PGC14) (antibody)
IC50, Neutralizing Antibody Assay, Virus/Ab Incubation 1 hour [9]: 1.17 µg/mL | IC50, Neutralizing Antibody Assay, Virus/Ab Incubation 18 hour [9]: 0.244 µg/mL

1443_C16 (PG16) (TCN-116) (antibody)
IC90 (neutralization of pseudovirus) [2]: > 50 µg/mL | IC50, pseudovirus neutralization (TZM-bl assay) [10]: < 0.01 µg/mL | IC50 (ug/ml), pseudovirus neutralization, TZM-bl assay [11]: 0.001 µg/mL | IC90 (neutralization of pseudovirus) [12]: > 50 µg/mL | IC50, Neutralizing Antibody Assay, Virus/Ab Incubation 1 hour [9]: > 50 µg/mL | IC50, Neutralizing Antibody Assay, Virus/Ab Incubation 18 hour [9]: > 50 µg/mL

1496_C09 (PG9) (TCN-109) (antibody)
IC50 (µg/mL), single-round pseudovirus neutralization [13]: 0.148 µg/mL | IC50 [14]: 0.023 µg/mL | IC50 [15]: 3.6 µg/mL | IC50 (µg/mL), pseudovirus neutralization [16]: 0.122 µg/mL | neutralization IC50 [17]: 1.91 µg/mL | IC50 (µg/mL), pseudovirus neutralization [18]: 0.518 µg/mL | IC50, single-round pseudovirus neutralization [19]: 0.688 µg/mL | IC50 (µg/mL), pseudovirus neutralization [20]: 0.06 µg/mL | IC50 (µg/mL), pseudovirus neutralization [21]: 19.3 µg/mL | IC50 (ug/ml), pseudovirus neutralization, TZM-bl assay [11]: 0.006 µg/mL | IC50, single-round pseudovirus neutralization [22]: 0.004 µg/mL | IC50 [23]: 0.258 µg/mL | IC50, single-round pseudovirus neutralization [24]: 3.44 µg/mL | IC50 [25]: 1.06 µg/mL | IC50 [26]: 0.69 µg/mL | IC50, single-round pseudovirus neutralization [27]: 0.027 µg/mL | IC50, single-round pseudovirus neutralization [28]: 19.3 µg/mL | IC50 (µg/mL), pseudovirus neutralization [29]: 0.022 µg/mL | IC50 (µg/mL), pseudovirus neutralization [30]: 1.25 µg/mL | IC50, single-round pseudovirus neutralization [31]: 0.181 µg/mL | Neutralization IC80 [32]: 0.448 µg/mL | Neutralization IC90 [32]: 1.07 µg/mL | Neutralization IC95 [32]: 2.43 µg/mL | neutralization IC50 [32]: 0.103 µg/mL | IC50 [33]: 0.164 µg/mL | IC50 (µg/mL), pseudovirus neutralization [34]: 1.8 µg/mL | IC50 (µg/mL), single-round pseudovirus neutralization [35]: 0.067 µg/mL

PGV04 (antibody)
IC50 (µg/mL), single-round pseudovirus neutralization [13]: > 50 µg/mL | IC50 [14]: 0.033 µg/mL | IC50 [15]: 4.46 µg/mL | IC50 (µg/mL), pseudovirus neutralization [16]: 0.086 µg/mL | IC50 (µg/mL), pseudovirus neutralization [18]: 0.268 µg/mL | IC50, single-round pseudovirus neutralization [19]: 0.129 µg/mL | IC50 (µg/mL), pseudovirus neutralization [20]: 43.2 µg/mL | IC50 (µg/mL), pseudovirus neutralization [21]: 0.225 µg/mL | IC50, single-round pseudovirus neutralization [22]: 0.744 µg/mL | IC50 [23]: 0.31 µg/mL | IC50, single-round pseudovirus neutralization [36]: 0.497 µg/mL | IC50, single-round pseudovirus neutralization [24]: 0.142 µg/mL | IC50 [25]: 7.21 µg/mL | IC50 [26]: 0.54 µg/mL | IC50, single-round pseudovirus neutralization [27]: 0.139 µg/mL | IC50, single-round pseudovirus neutralization [28]: 2.26 µg/mL | IC50 (µg/mL), pseudovirus neutralization [29]: 0.205 µg/mL | IC50 (µg/mL), pseudovirus neutralization [30]: 0.084 µg/mL | IC50, single-round pseudovirus neutralization [31]: 24.2 µg/mL | IC50 [33]: 0.14 µg/mL | IC50 (µg/mL), pseudovirus neutralization [34]: > 50 µg/mL | IC50 [37]: 0.244 µg/mL | IC50 (µg/mL), single-round pseudovirus neutralization [35]: 0.149 µg/mL

4838_L06 (PGT-121) (antibody)
Neutralization IC80 [38]: 0.0532 µg/mL | Neutralization IC90 [38]: 0.101 µg/mL | EC50 [39]: > 10 µg/mL

b12 (antibody)
IC90 (neutralization of pseudovirus) [12]: > 50 µg/mL

From patent US20240132578A1
